Measured values reported in article PMC7949154, “Heat shock transcription factor 1 is SUMOylated in the activated trimeric state” (The Journal of Biological Chemistry, 2020).
Changes are numbered by the printed parent chain. Numbers in names are those of the source.

B1: Heat shock transcription factor 1 (Hsf1), wildtype, Q00613 1-529 (natural protein)
chain: MDLPVGPGAAGPSNVPAFLTKLWTLVSDPDTDALICWSPSGNSFHVFDQGQFAKEVLPKYFKHNNMASFVRQLNMYGFRKVVHIEQGGLVKPERDDTEFQHPCFLRGQEQLLENIKRKVTSVSTLKSEDIKIRQDSVTKLLTDVQLMKGKQECMDSKLLAMKHENEALWREVASLRQKHAQQQKVVNKLIQFLISLVQSNRILGVKRKIPLMLNDSGSAHSMPKYSRQFSLEHVHGSGPYSAPSPAYSSSSLYAPDAVASSGPIISDITELAPASPMASPGGSIDERPLSSSPLVRVKEEPPSPPQSPRVEEASPGRPSSVDTLLSPTALIDSILRESEPAPASVTALTDARGHTDTEGRPPSPPPTSTPEKCLSVACLDKNELSDHLDAMDSNLDNLQTMLSSHGFSVDTSALLDLFSPSVTVPDMSLPDLDSSLASIQELLSPQEPPRPPEAENSSPDSGKQLVHYTAQPLFLLDPGSVDTGSNDLPVLFELGEGSYFSEGDGFAEDPTISLLTGSEPPKAKDPTVS
B2: Hsf1–K298R,S303E,S307E (natural protein, human, UniProt Q00613 1-529, looked up)
chain: B1 chain with K298R, S303E, S307E
notes: Heat shock transcription factor 1 (Hsf1), human, full length, K298R in the S303E,S307E variant; also called REE; EE,K298R; source: E. coli BL21(DE3) Rosetta, purified (Ni-IDA, tag cleaved with tobacco etch virus protease, SEC)
B3: Hsf1–S303E,S307E (double phosphomimetic variant) (natural protein, human, UniProt Q00613 1-529, looked up)
chain: B1 chain with S303E, S307E
notes: Heat shock transcription factor 1 (Hsf1), human, full length, phosphomimetic S303E,S307E; theoretical mass 57,270.43 Da; also called EE; source: E. coli BL21(DE3) Rosetta, purified (Ni-IDA, tag cleaved with tobacco etch virus protease, SEC; monomeric and trimeric fractions)

What was measured:
[1] = target: T1, Heat shock transcription factor 1 (Hsf1), wildtype (human), Q00613; assay: native gel or EMSA; Blue native PAGE (8% gel, on ice) of monomeric Hsf1 and of Hsf1 monomers heat shocked at 42 °C for 10 min; samples taken at 0 and 3 h of incubation at 25 °C (Figure S1); conditions: remark: other sources report otherwise
T1 chain: B1 chain

[2] = target: the molecule itself; assay: as above

| Binder | stoichiometry N [1] | stoichiometry N [2] |
| --- | --- | --- |
| B1 | 3 |  |
| B2 |  | 3 |
| B3 |  | 3 |
